Results: the domain aggregation screens of Martell et al. (2025)

Assay: soluble fraction after stress (log2 fold change); higher = more stays soluble; pooled small domains, quantitative proteomics
Conditions: stress: 50 degC
In short: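 Pooled custom libraries of small protein domains were each held under stress at 50°C. The read-out, high-throughput quantitative proteomics, tracked how much of each protein stayed soluble. This is reported as a base-two log fold change used to indicate aggregation propensity. Higher values mean more protein remains in solution.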

Sequence | soluble fraction (log2)
HMDEILHHPSYRAIYEYMLDHKHVKTKDIAALLNVKEPRARQLLKEMIDKHFIIALGSNRNREYELL | -0.495
HMISEKEIKIIEDILARWNGKLTWDDFTSKVAKKLNLPSLSKFTLMGYPEIKQAFLTRKQTLK | -0.328
HMTSFDVMLKSAGANKLAVVKLVKELTGLGLKEAKDIVDAAPSKVKEGVSKEEAEELQKQLTGAGAEVEL | 0.0299
HMEGVSPQTVQEHIRRFIAAEDPASPLSDEALREALGNLGINASRRTVAKYRGEMGIPSSAQRKR | -0.053
HMGVTGYPNPTREHITWDDARRIEVWNAYGVPVADLRFARGVLDVAGWPVGTYVARIDGGRSVRFVVI | -0.19
HMEYELYALKEEVLKRLTREDRELLILLFEERRTIHAVAQRLGLSDSAVYKRRTQLVNKVKVIASMLM | -2.13
HMQSKDDLLDTFRVVKGNAALLNDQNKKLIRSLKVSSFGFTGITDQAAEVKKEMPDVLLEKASIEDILF | -0.12
HMISFTDLEHIEKMIENVLYTKTPLNLPPTDAKIRKIEHQIARRYGLNSESFGDEPRRFVVVYPNEERE | -0.625
HMLAQYPGQVFSKEQIYNQVWKEPYYGVEDNVMSLIRRIRKKIEPDPSRPIYILTVWGIGYKFNN | -0.197
HMGDDVRKNILDVLSKFERVDITDLDSLELVRFYLEIEDIFDIEIKENDFYRLKSVDSIVDYIRNKSFF | -1.2
HMSRGTRIDPNWQPSPEDRALARAEGFSDPEIDREALQFRDYWLGASGSNAVKLDWSATWRNWVRRAATNF | 0.0774
HMPATTMMVVVDRDLPYGHVLTDRDVRLETRRATSPGASVAFTSIDPVLGQSLTRPLGAGTPVGRADLR | -0.155
HMSGPVITEERNIANALISGLANMKETPTREQVERKAQQIAELFGYTGDLRNIITEAMISVDT | 0.059
HMTKAEVLLDLQQRIISEEFLPGSWLVERDLSSEYGLSRTPIREILNKLVILGLISVQKNRGYQVR | -1.43
HMGSYVVQLGAFAIRANAEKLAREVDGSIATSGRFSLVRVGPFTSRGQAEQALAKLRARGYSDALIHSL | -0.224
HMGGLLSVIQKKAINNVKDRYSENAIKSMTKVQLHDLIKAETSRLLDPANAKETPEYQAFLEE | 0.0926
HMVSATKAFVNGGNIVVSSPKATRVAVYNVAGQKVAEQAFAGKATIKASDFAKGIYVLKFNDNTVLKLT | -0.518
HMDSSITLMRMYIPKGHNWENKLISDVSMPTNSLALMIKRNGTTIIPKGDTMILAKDTLILSVPSYEPS | -1.13
HMPNGEAYQRFTYENDILEGRFEEWDSLGTDIVKGDYTAGVRHKKWLYYDSEGRRDKFVFLDMDSI | 0.0763
HMDQDIILHKVQPGDTLSKILLHYHSHQDRNKLQGLIAESMTANPFIKNPDLIYPGQLIQVPVPA | 0.05
HMTNTYEVIKNDIIFGVLPPLKKLKLLELKKKYITSVSTLREILSRLSGDGFVVSKEQKGFYVSAV | -0.00437
HMPAERLSMRKIYEILRLKYGHGLSNREVALSVSVSRSTVADYLLRAQAAGLSWPLPDGLDETGLEQRLFP | -2.02
HMTAQASDIEKVLQVIETLGFRGHTLPGENRTAIGVTGNRGSIDPAHFENLPGVADAIRVTKPY | 0.0639
HMERAPAYPDGLTQREVEVLRLIASGKTDREIAEELFIGVRTVSTHVGNILNKTNSANRTEAASYANQQGL | -0.191
HMPVEFVKISIKPGHPWENQFVRDIVSLPDLLMVLILRGEERIIPNGNTKILVGDKIVLSALSPG | -0.779

Sequence | soluble fraction (log2)
HMEGIAYDINTAPEHIDLKAEDMMATFNIGKTALWRWVKQKILPPPYEYRSQAAHWTIGQIRDWKTA | -0.0672
HMTRKQTIYEFLRRMKSQHGLDAVYSTEEIANAVGVSRANVSSDLNRLFEEQLVEKLPGWPVKYRA | 0.0186
HMEELTPLQKYVFDYESDISDEVDMRAIKGLENANDVYDYYANVRGWEGDPDLEDDLDNIYRQVKARFA | 0.0161
HMIQHFARKRRQLELAVQRLSGRMAETNGQVTADMQRLIQQVKALVAELSHVFSRAYLRRVLGGVALVIGS | -0.104
HMEAEQLEAIRSALQQLSDMNRTVFNLHVVDGYKHEEIAAMLNITTGTSKAHLHRAKKRLRELID | -0.975
HMVWNVEQIKRAVDQLPDGYRVVFTLYLFEGYDHREIADILGISEGGSKSQFNRAKSKLKEILTAMS | -1.98
HMENLTLVIGNKLKNIRNSRNLSLDDVAELTGVSKAMLGQIERGKSNPTVSTLWKISTGLRVSFSSFIDE | -2.2
HMPELSNNLDRDKVALKNFNESLKDGLTPAEAYANHLTNVSKAAQEAARQSNGLPVDIDKYHNSQLAASMA | 0.273
HMEQISIETRIEQLLARLSETEASGFEELFADTSSRADLITTFLALLEMIRLKLVRVFQDGSFGPIRIYKR | -0.27
HMNVDALVGMPARVTRAFVQGAGEVKLDNGETWTARLSAGVTDAEASVGQTVSVIAVRGAAVEVAPE | 0.0386
HMGESFEELAREISDDTGSKTEGGETGLFPRGVMAPQFEEAAFLLKVGDISEPIRTKFGYHIIKLKEIKP | -0.156
HMKQNNYATKKELNFFVSRLISLLSYRDFFNPIEKKESMINNIEAIFTRSSLTSQELRTLHGIISNLVE | -3.07
HMDTQKYDLNDDGRFDVQDVTYLQIKIAGDGELTDNQKKIADYNNDGKIDVQDVTSAQMLIS | -0.0732
HMQSHGSRIWTDITGNFTREASFIELAEGKVTLQLTDGRRTIISFEILSKKDQEYVLDIGDS | -2.11
HMTPDVAEFRERLRQILPGEQIEVRTANDGIVLSGTVSSIARLDAALQLAERYAPSRVSNLMSVG | 0.19
HMFDITKEVLKQSGLYNLYKNDESLEGINRIQNIEELLNGIKDFVENNEKSQASVSSFLQDVALATDQ | 0.126
HMISKAQLFSEEELTELYRATGYQLENDPEIHREQFEALQAVRAKIEYAVPDVQEKLEQEQNLGQQ | 0.295
HMTVGEAHLEEVYLKVLKQVEEQGTALIRTTDVETGRPAAGIRRRYMRGTLPDEWVAKFEALPGWTWAPG | -0.879
HMSENIQLQKEQLYQLIAQLPEQRQKIFRLHKIDNYSYQEISDFTGLSRKTIANHIYLAHQFILKKVKK | -3.25
HMSQSIGQEKALSIALADAGVQKENALGLEVKGEYDDGQLLYEVEFRAGGVEYEYEVRASDGRIVKAERD | 0.13
HMTGGLLVHVAGAVGAPGVVSLPEGARVVDAIEAAGGAREDADTDQLNLARPVVDGEQVRVPVVGEVLE | -0.0748
HMKSIEVPNLINMTLRKAKIELIDNEFNLDTVIYEYNPNIREGRVSLQIPESGTILKSGSNISIHISKGIP | -1.53
HMGNTTEVLVATQDVKANTKIKESMFTTERVDTASLPDNYLSADSAKDVVGYYTYIGFTKGSVISKSNIAT | 0.0925
HMARTGSEELVGALATVREPLAPWGQVFVQGALWRARSADGGPVDAGQQVVVRAVEGLTLVVEPRD | 0.00428
HMNQRQKQLLSILEQQGDWMKGKALATLLAVSDRTIRSDIEKINREVEGSILSHPHKGYLLSVENRQIAET | 0.256

Sequence | soluble fraction (log2)
HMLKTADAIASVLLTRIQAGEFSAGRLPAERALSEAFSTTRITLREALGKLEAQGMIYRELRRGWFIA | -1.76
HMQNNITISKEIELRTGPDDTYPTLKKVTAGDNVEMLSKSDTWYEIKTNDSFVGWVPGWSIL | 0.0818
HMNKAYLTVADMKKDKSLKNGDVVRTLGYYGYNDGDGAVYQIKDSHPEDYHIRLDNGLDAEQINY | 0.012
HMKDMKISTQNILKELATNYPDQTAFRKNVIESTAKSMGYTGKDFYPMLTAETRVKIGTYDLSALLQTV | -0.178
HMYVSGVPAITSIERVSTPGRRVYAGYTTVPKVIGGMGVSILTTSRGVMTDAEARRQKVGGELLAKV | -0.0341
HMQDTTLTSQILRVPSSVNINDLANVLKSLAGKNTVVAPYKAANTIIITGYAPNVRRVLSLANELIPRLDV | -0.53
HMKNFAPVWGEEGAEFGKEVDTGFRLRIVEKEKDVNDLFEVIQKHTIQSQWKPGSTGTESIYKRI | 0.37
HMTNYNTEKIIPEEQAGKRLDVVLANIFPEFSRSRLKNWIIDGFILVDGKVLRPRDFVTGGELVSIDVIV | -0.1
HMQSSDQTDNIYENAVSIVLETGKASASHLQRVLGIDYNLAAHLIDKMEDGGLLSPPNYLGHRDVYGYT | 0.0916
HMPESETIMVDVKGAVQSEGVYELPSTARVNDAIEAAGGFSDQADKKSVNLAQKLSDEAVVYVASQGENV | 0.207
HMSLIDYLNELMNEKNITVAQVAKNSGIGEYVYKIFNGERNAKRDTLVAISFGMHLNFEETQLLLRIA | -0.682
HMILEEIIGKNIARYREAAGLTQATLAEKIGISTAFVSRVERGQKKMKVETLYATAKVLNVSVDALLS | -2.1
HMVQMKIRAYELEPNDFFIKQNMTYRVMRIQNGMIYAKHLLNSTPITFGAKSMEFVLWTGKYS | -2.36
HMPRKYFPFYFTFRETAQTMPPRLRAVFYEAIIEYGTTGKEPTLPKSIAGYWPLVKPTLDSAKAHYDAG | -0.831
HMLDLNEVEFYAIENQLKENLKIDSKRFYELVPLIKGYQEDDIIQVLRWLIDNNRIIRHKDESLTWHS | -1.61
HMEQIETIFLSAAPYARTHIIHLLETSELFRDKYLTIVETSNGLLIYTEDKNRLLGILNSLT | -1.9
HMTSKTLSAVEGEGLRLDKFLSNQLPELSRTKIQKMINDGLVFVNNTEAKASLILDGSEFIAYTVPD | -0.0541
HMNSSLLGKRIKSLREDHDLTQKELSLMIGLTPKMISFYENNQRTPPLDILLKLAKIFEVSVDYLIGYA | -0.551
HMLPSELLAQQRIVVQPGHNLWRIARATYGRGARYTVIYQANREQIADPNRIFPGQVFALPAA | -0.121
HMDSRQIIAALQARYADETGITALKIKFNNVLGYFVDVPARYGDPLMKPPLSETFIHRQTLASNVRF | -0.0732
HMKPVYNKVEIPRGGEYALVLSDGTKVHLNSMSSLRFPVAFTTGKREVELQGEAYFEVSKTGQPFIVNV | -0.0523
HMKYYIYQGLGDSGELTKIAEVTDVKTYTATGLEANTKYRFAVSAYNGLRESSKSNIITVTT | 0.0324
HMEPVQFIQFKIPDGHPWSGQLLREVRLPPGTLVVLLKHDGKNIIPNGETPLLAGDSVILSAASPT | -0.197
HMITASNYFIEVERIGIETLPETLKKGHDLVVKSTSNGTNWANYQTSEGIKKVIDLYFQKLNEYANTV | -0.749
HMGVGITAPLAGNIFKIVVQPGDVVASGDVVLVLEAMKMETEIRAASGGTVSQVLVREGDAVDAGHTLITL | -0.764
